Measured values reported in the supplement of paper PMC7877785.
± gives the uncertainty stated by the source.

Assay: self-splicing fitness, log relative to wild type (ln ratio); higher = more splicing; Tetrahymena group I intron in knt gene, E. coli kanamycin selection, DiMSum; sequences stand for … in CUCUCU…GGAGGGAAAAGUUAUCAGGCAUGCACCUGGUAGCUAGUCUUUAAACCAAUAGAUUGCAUCGGUUUAAAAGGCAAGACCGUCAAAUUGCGGGAAAGGGGUCAACAGCCGUUCAGUACCAAGUCUCAGGGGAAACUUUGAGAUGGCCUUGCAAAGGGUAUGGUAAUAAGCUGACGGACAUGGUCCUAACCACGCAGCCAAGUCCUAAGUCAACAGAUCUUCUGUUGAUAUGGAUGCAGUUCACAGACUAAAUGUCGGUCGGGGAAGAUGUAUUCUUCUCAUAAGAUAUAGUCGGACCUCUCCUUAAUGGGAGCUAGCGGAUGAAGUGAUGCAACACUGGAGCCGCUGGGAACUAAUUUGUAUGCGAAAGUAUAUUGAUUAGUUUUGGAGUACUCGUGGUCG
Outline: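 Library with all eight P1ex-region intron nucleotides randomised, intron inside the knt kanamycin-resistance gene on pET-22b(+), in E. coli BL21(DE3). Cells grew overnight at 37°C or 30°C on LB agar with or without 25 μg/mL kanamycin (plus 100 μg/mL carbenicillin, 50 μM IPTG, 0.2% rhamnose), in six replicate transformations. Pooled colonies were amplicon-sequenced on Illumina HiSeq 2500. DiMSum fitness is the error-weighted combination of wild-type-normalised replicate fold changes, kanamycin versus none.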

Sequence | self-splicing fitness (ln) (30 °C) | self-splicing fitness (ln) (37 °C)
CUCGAGCAAUAUUACGCAAG | -3.95 ± 0.43 | -1.35 ± 0.3
CUCGAGCAAUAUUACGCACG | -1.6 ± 0.23 | –
CUCGAGCAAUAUUACGCCUC | -1.8 ± 0.21 | –
CUCGAGCAAUAUUACGCGAG | -3.97 ± 0.42 | -2.98 ± 0.47
CUCGAGCAAUAUUACGCUGG | -4.31 ± 0.24 | -3.22 ± 0.22
CUCGAGCAAUAUUACGGCCU | – | -1.37 ± 0.36
CUCGAGCAAUAUUACGUAGC | – | -2.19 ± 0.27
CUCGAGCAAUAUUACGUCAG | – | -0.401 ± 0.39
CUCGAGCAAUAUUACGUCAU | -4.1 ± 0.27 | -3.38 ± 0.28
CUCGAGCAAUAUUACGUGAA | -2.47 ± 0.21 | -2.93 ± 0.47
CUCGAGCAAUAUUACGUGAU | -2.16 ± 0.14 | -0.542 ± 0.12
CUCGAGCAAUAUUACGUUUC | -1.78 ± 0.29 | -1.25 ± 0.25
CUCUAGCAAUAUUACGAAAC | -2.61 ± 0.35 | –
CUCUAGCAAUAUUACGAACC | -3.06 ± 0.37 | –
CUCUAGCAAUAUUACGAAGU | -3.44 ± 0.21 | -4.77 ± 0.23
CUCUAGCAAUAUUACGACAG | -1.95 ± 0.14 | -0.569 ± 0.13
CUCUAGCAAUAUUACGACCG | -0.158 ± 0.23 | -0.785 ± 0.24
CUCUAGCAAUAUUACGAGAA | -3.05 ± 0.41 | -2.02 ± 0.21
CUCUAGCAAUAUUACGAGAU | -3.29 ± 0.43 | -2.94 ± 0.31
CUCUAGCAAUAUUACGAGCA | -3.95 ± 0.33 | -3.04 ± 0.23
CUCUAGCAAUAUUACGAUCG | -1.57 ± 0.081 | -0.281 ± 0.12
CUCUAGCAAUAUUACGAUGA | -1.93 ± 0.2 | -1.93 ± 0.29
CUCUAGCAAUAUUACGAUGC | -1.49 ± 0.17 | -3.25 ± 0.33
CUCUAGCAAUAUUACGAUUG | -1.48 ± 0.091 | -1.24 ± 0.12
CUCUAGCAAUAUUACGCCCU | -3.28 ± 0.26 | -2.2 ± 0.19

Sequence | self-splicing fitness (ln) (30 °C) | self-splicing fitness (ln) (37 °C)
CUCUAGCAAUAUUACGCUUU | -3.13 ± 0.28 | -2.08 ± 0.22
CUCUAGCAAUAUUACGGCGG | -3.5 ± 0.15 | -3.12 ± 0.23
CUCUAGCAAUAUUACGGGGA | -1.69 ± 0.17 | -1.62 ± 0.14
CUCUAGCAAUAUUACGUCAA | -4.19 ± 0.29 | -3.45 ± 0.25
CUCUAGCAAUAUUACGUCAU | -2.83 ± 0.4 | -4.18 ± 0.39
CUCUAGCAAUAUUACGUCCC | -2.69 ± 0.27 | -3.71 ± 0.39
CUCUAGCAAUAUUACGUCUU | -2.57 ± 0.12 | -3.16 ± 0.16
CUCUAGCAAUAUUACGUUGA | -2.49 ± 0.27 | -3.81 ± 0.36
CUGAAGCAAUAUUACGAAAG | -0.525 ± 0.12 | -0.0848 ± 0.16
CUGAAGCAAUAUUACGACGU | -2.75 ± 0.12 | -1.09 ± 0.1
CUGAAGCAAUAUUACGAGCG | 0.242 ± 0.072 | 0.0253 ± 0.1
CUGAAGCAAUAUUACGAGUC | -3.88 ± 0.19 | -2.16 ± 0.21
CUGAAGCAAUAUUACGAUAA | -2.51 ± 0.25 | -2.06 ± 0.29
CUGAAGCAAUAUUACGCACU | -4.4 ± 0.39 | -1.32 ± 0.18
CUGAAGCAAUAUUACGCAGC | -3.2 ± 0.4 | -1.77 ± 0.45
CUGAAGCAAUAUUACGCAGU | -3.09 ± 0.19 | -3.23 ± 0.43
CUGAAGCAAUAUUACGCCGG | -1.86 ± 0.25 | -1.19 ± 0.25
CUGAAGCAAUAUUACGCGGU | -1.86 ± 0.08 | -0.746 ± 0.081
CUGAAGCAAUAUUACGCUAG | -1.1 ± 0.096 | -0.802 ± 0.099
CUGAAGCAAUAUUACGGCCU | -4.04 ± 0.26 | -2.43 ± 0.33
CUGAAGCAAUAUUACGGCGA | -3.53 ± 0.27 | –
CUGAAGCAAUAUUACGGCGU | -3.6 ± 0.41 | -2.98 ± 0.47
CUGAAGCAAUAUUACGGCUG | -0.126 ± 0.074 | 0.668 ± 0.11
CUGAAGCAAUAUUACGGGGG | -1.46 ± 0.14 | -1.28 ± 0.18
CUGAAGCAAUAUUACGGGUU | -3.71 ± 0.21 | -2.77 ± 0.22
